According to PMC10592209 (Neuron, 2023):

Target: the molecule itself
Assay: native gel or EMSA

Row | Protein | stoichiometry N
1 | acid-gated ASIC1 channel (natural protein, mouse (endogenous in brain), UniProt Q6NXK8 1-526, looked up) MELKTEEEEVGGVQPVSIQAFASSSTLHGLAHIFSYERLSLKRALWALCFLGSLAVLLCVCTERVQYYFCYHHVTKLDEVAASQLTFPAVTLCNLNEFRFSQVSKNDLYHAGELLALLNNRYEIPDTQMADEKQLEILQDKANFRSFKPKPFNMREFYDRAGHDIRDMLLSCHFRGEACSAEDFKVVFTRYGKCYTFNSGQDGRPRLKTMKGGTGNGLEIMLDIQQDEYLPVWGETDETSFEAGIKVQIHSQDEPPFIDQLGFGVAPGFQTFVSCQEQRLIYLPSPWGTCNAVTMDSDFFDSYSITACRIDCETRYLVENCNCRMVHMPGDAPYCTPEQYKECADPALDFLVEKDQEYCVCEMPCNLTRYGKELSMVKIPSKASAKYLAKKFNKSEQYIGENILVLDIFFEVLNYETIEQKKAYEIAGLLGDIGGQMGLFIGASILTVLELFDYAYEVIKHRLCRRGKCQKEAKRNSADKGVALSLDDVKRHNPCESLRGHPAGMTYAANILPHHPARGTFEDFTC | 3
2 | voltage-gated HCN1 channel (natural protein, mouse (endogenous in brain), UniProt O88704 1-910, looked up) MEGGGKPNSASNSRDDGNSVFPSKAPATGPVAADKRLGTPPGGGAAGKEHGNSVCFKVDGGGGEEPAGSFEDAEGPRRQYGFMQRQFTSMLQPGVNKFSLRMFGSQKAVEKEQERVKTAGFWIIHPYSDFRFYWDLIMLIMMVGNLVIIPVGITFFTEQTTTPWIIFNVASDTVFLLDLIMNFRTGTVNEDSSEIILDPKVIKMNYLKSWFVVDFISSIPVDYIFLIVEKGMDSEVYKTARALRIVRFTKILSLLRLLRLSRLIRYIHQWEEIFHMTYDLASAVVRIFNLIGMMLLLCHWDGCLQFLVPLLQDFPPDCWVSLNEMVNDSWGKQYSYALFKAMSHMLCIGYGAQAPVSMSDLWITMLSMIVGATCYAMFVGHATALIQSLDSSRRQYQEKYKQVEQYMSFHKLPADMRQKIHDYYEHRYQGKIFDEENILSELNDPLREEIVNFNCRKLVATMPLFANADPNFVTAMLSKLRFEVFQPGDYIIREGAVGKKMYFIQHGVAGVITKSSKEMKLTDGSYFGEICLLTKGRRTASVRADTYCRLYSLSVDNFNEVLEEYPMMRRAFETVAIDRLDRIGKKNSILLQKFQKDLNTGVFNNQENEILKQIVKHDREMVQAIPPINYPQMTALNCTSSTTTPTSRMRTQSPPVYTATSLSHSNLHSPSPSTQTPQPSAILSPCSYTTAVCSPPIQSPLATRTFHYASPTASQLSLMQQPQQQLPQSQVQQTQTQTQQQQQQQQQQQQQQQQQQQQQQQQQQQQQQQQQQQQQPQTPGSSTPKNEVHKSTQALHNTNLTKEVRPLSASQPSLPHEVSTLISRPHPTVGESLASIPQPVAAVHSTGLQAGSRSTVPQRVTLFRQMSSGAIPPNRGVPPAPPPPAAVQRESPSVLNTDPDAEKPRFASNL | 4
